Here are results for four molecules from patent publication US20100040635A1 (SEA LANE BIOTECHNOLOGIES, published 2010).

Residue numbers refer to the chain shown, from its start.

The target in the assay is H3 hemagglutinin of influenza A/Hong Kong/68 (influenza A virus H3 A/Hong Kong/68). The experiment in a line: cell-based or functional assay.

B1: Antibody 1 (antibody, V domains shown)
VH: QVQLVQSGAEVKKPGSSVRVSCKTSGGTFSSYAVTWVRQAPGQGLEWMGGIIGMFGTTNYAQKFQGRLTITADEMTSTAYMELSSLRSEDTAVYYCARGSYYYETTLDYWGRGTL
VL: ETTLTQSPGTLSLSPGERATLSCRVSQSVSSNYLAWYQQKPGQAPRLLIYGASSRATGIPDRFSGSGSGTDFTLTISRLEPEDFAVYYCQQYGTSPRAFGHGTKVEIKR
With B1, the “Minimum inhibitory concentrations required to neutralize virus” value was over 333 µg/mL.

B2: Antibody 3 (antibody, V domains shown)
V domain 1: B1 VH with Q1E, R19K, G50A, L68V, M75L, E89D, T105S, T106S, R112K
V domain 2: QSVLTQPPSVSGAPGQRVTISCGGSRSNIGAGYDVHWYQQFPGTAPKVVIYGNNNRPSGVPDRFSGSKSGTSASLAITGLQAEDEANYYCQSYDTNLGGSIFGGGTQVTVL
Regarding B2, the “Minimum inhibitory concentrations required to neutralize virus” value was over 333 µg/mL.

B3: Antibody 2 (antibody, V domains shown)
VH: B1 VH with R19K, L68V, M75L, T105S, T106S
VL: ETTLTQSPATLSVSPGERATLSCRASQSVSRNLAWYQQKPGQAPRLLIYGASSRATGIPDRFSGSGSGTDFTLTISRLEPEDFAVYYCQQYGSSSITFGQGTRLEIKR
Consider B3, for which the “Minimum inhibitory concentrations required to neutralize virus” value was over 333 µg/mL.

B4: Antibody 4 (antibody, V domains shown)
VH: QVQLQESGPGLVKPSETLSLTCTVSGYSFDSGYYWGWLRQPPGKGLEWIGSIYHSRNTYYNPSLKSRVTISVDTSKNQFSLQLSSVTAADTAVYYCARGTWYSSNLRYWFDPWGKGTL
VL: NFMLTQPHSVSESPGKTVTISCTGSGGNIARNYVQWYQQRPGSAPVTVILEDDKRPSGIPDRFSGSIDRSSNSASLTISGLRTEDEALYYCQSYDDSDLVVFGGGTKLT
For the molecule B4, the “Minimum inhibitory concentrations required to neutralize virus” value is over 333 µg/mL.
